Reference: paper PMC7725820, “Heme biosynthesis depends on previously unrecognized acquisition of iron-sulfur cofactors in human amino-levulinic acid dehydratase” (Nature Communications, 2020)

B1: MBP-ALAD C162A (enzyme, human, UniProt P13716 1-330, looked up)
chain: MQPQSVLHSGYFHPLLRAWQTATTTLNASNLIYPIFVTDVPDDIQPITSLPGVARYGVKRLEEMLRPLVEEGLRCVLIFGVPSRVPKDERGSAADSEESPAIEAIHLLRKTFPNLLVACDVCLCPYTSHGHCGLLSENGAFRAEESRQRLAEVALAYAKAGAQVVAPSDMMDGRVEAIKEALMAHGLGNRVSVMSYSAKFASCFYGPFRDAAKSSPAFGDRRCYQLPPGARGLALRAVDRDVREGADMLMVKPGMPYLDIVREVKDKHPDLPLAVYHVSGEFAMLWHGAQAGAFDLKAAVLEAMTAFRRAGADIIITYYTPQLLQWLKEE
notes: aminolevulinic acid dehydratase (ALAD), human; source: E. coli BL21(DE3), expressed along with the isc operon, purified anaerobically (amylose resin); not shown: MBP, N-terminal, kept
B2: MBP-ALAD C122A (enzyme, human, UniProt P13716 1-330, looked up)
chain: MQPQSVLHSGYFHPLLRAWQTATTTLNASNLIYPIFVTDVPDDIQPITSLPGVARYGVKRLEEMLRPLVEEGLRCVLIFGVPSRVPKDERGSAADSEESPAIEAIHLLRKTFPNLLVACDVALCPYTSHGHCGLLSENGAFRAEESRQRLAEVALAYAKAGCQVVAPSDMMDGRVEAIKEALMAHGLGNRVSVMSYSAKFASCFYGPFRDAAKSSPAFGDRRCYQLPPGARGLALRAVDRDVREGADMLMVKPGMPYLDIVREVKDKHPDLPLAVYHVSGEFAMLWHGAQAGAFDLKAAVLEAMTAFRRAGADIIITYYTPQLLQWLKEE
notes: as for B1
B3: MBP-ALAD C223A (enzyme, human, UniProt P13716 1-330, looked up)
chain: MQPQSVLHSGYFHPLLRAWQTATTTLNASNLIYPIFVTDVPDDIQPITSLPGVARYGVKRLEEMLRPLVEEGLRCVLIFGVPSRVPKDERGSAADSEESPAIEAIHLLRKTFPNLLVACDVCLCPYTSHGHCGLLSENGAFRAEESRQRLAEVALAYAKAGCQVVAPSDMMDGRVEAIKEALMAHGLGNRVSVMSYSAKFASCFYGPFRDAAKSSPAFGDRRAYQLPPGARGLALRAVDRDVREGADMLMVKPGMPYLDIVREVKDKHPDLPLAVYHVSGEFAMLWHGAQAGAFDLKAAVLEAMTAFRRAGADIIITYYTPQLLQWLKEE
notes: as for B1
B4: MBP-ALAD K252M (enzyme, human, UniProt P13716 1-330, looked up)
chain: MQPQSVLHSGYFHPLLRAWQTATTTLNASNLIYPIFVTDVPDDIQPITSLPGVARYGVKRLEEMLRPLVEEGLRCVLIFGVPSRVPKDERGSAADSEESPAIEAIHLLRKTFPNLLVACDVCLCPYTSHGHCGLLSENGAFRAEESRQRLAEVALAYAKAGCQVVAPSDMMDGRVEAIKEALMAHGLGNRVSVMSYSAKFASCFYGPFRDAAKSSPAFGDRRCYQLPPGARGLALRAVDRDVREGADMLMVMPGMPYLDIVREVKDKHPDLPLAVYHVSGEFAMLWHGAQAGAFDLKAAVLEAMTAFRRAGADIIITYYTPQLLQWLKEE
notes: as for B1
B5: MBP-ALAD C124A (enzyme, human, UniProt P13716 1-330, looked up)
chain: MQPQSVLHSGYFHPLLRAWQTATTTLNASNLIYPIFVTDVPDDIQPITSLPGVARYGVKRLEEMLRPLVEEGLRCVLIFGVPSRVPKDERGSAADSEESPAIEAIHLLRKTFPNLLVACDVCLAPYTSHGHCGLLSENGAFRAEESRQRLAEVALAYAKAGCQVVAPSDMMDGRVEAIKEALMAHGLGNRVSVMSYSAKFASCFYGPFRDAAKSSPAFGDRRCYQLPPGARGLALRAVDRDVREGADMLMVKPGMPYLDIVREVKDKHPDLPLAVYHVSGEFAMLWHGAQAGAFDLKAAVLEAMTAFRRAGADIIITYYTPQLLQWLKEE
notes: as for B1
B6: MBP-ALAD C119A (enzyme, human, UniProt P13716 1-330, looked up)
chain: MQPQSVLHSGYFHPLLRAWQTATTTLNASNLIYPIFVTDVPDDIQPITSLPGVARYGVKRLEEMLRPLVEEGLRCVLIFGVPSRVPKDERGSAADSEESPAIEAIHLLRKTFPNLLVAADVCLCPYTSHGHCGLLSENGAFRAEESRQRLAEVALAYAKAGCQVVAPSDMMDGRVEAIKEALMAHGLGNRVSVMSYSAKFASCFYGPFRDAAKSSPAFGDRRCYQLPPGARGLALRAVDRDVREGADMLMVKPGMPYLDIVREVKDKHPDLPLAVYHVSGEFAMLWHGAQAGAFDLKAAVLEAMTAFRRAGADIIITYYTPQLLQWLKEE
notes: as for B1
B7: MBP-ALAD Mut AFR-AAA (enzyme, human, UniProt P13716 1-330, looked up)
chain: MQPQSVLHSGYFHPLLRAWQTATTTLNASNLIYPIFVTDVPDDIQPITSLPGVARYGVKRLEEMLRPLVEEGLRCVLIFGVPSRVPKDERGSAADSEESPAIEAIHLLRKTFPNLLVACDVCLCPYTSHGHCGLLSENGAFRAEESRQRLAEVALAYAKAGCQVVAPSDMMDGRVEAIKEALMAHGLGNRVSVMSYSAKFASCFYGPFRDAAKSSPAFGDRRCYQLPPGARGLALRAVDRDVREGADMLMVKPGMPYLDIVREVKDKHPDLPLAVYHVSGEFAMLWHGAQAGAFDLKAAVLEAMTAAARAGADIIITYYTPQLLQWLKEE
notes: aminolevulinic acid dehydratase (ALAD), human, Ala306-Phe307-Arg308 motif replaced by alanines; source: E. coli BL21(DE3), expressed along with the isc operon, purified anaerobically (amylose resin); not shown: MBP, N-terminal, kept
B8: MBP-ALAD C132A (enzyme, human, UniProt P13716 1-330, looked up)
chain: MQPQSVLHSGYFHPLLRAWQTATTTLNASNLIYPIFVTDVPDDIQPITSLPGVARYGVKRLEEMLRPLVEEGLRCVLIFGVPSRVPKDERGSAADSEESPAIEAIHLLRKTFPNLLVACDVCLCPYTSHGHAGLLSENGAFRAEESRQRLAEVALAYAKAGCQVVAPSDMMDGRVEAIKEALMAHGLGNRVSVMSYSAKFASCFYGPFRDAAKSSPAFGDRRCYQLPPGARGLALRAVDRDVREGADMLMVKPGMPYLDIVREVKDKHPDLPLAVYHVSGEFAMLWHGAQAGAFDLKAAVLEAMTAFRRAGADIIITYYTPQLLQWLKEE
notes: as for B1
B9: N-terminally MBP-tagged human ALAD, wild type (MBP-ALAD) (enzyme, UniProt P13716 1-330, looked up)
chain: MQPQSVLHSGYFHPLLRAWQTATTTLNASNLIYPIFVTDVPDDIQPITSLPGVARYGVKRLEEMLRPLVEEGLRCVLIFGVPSRVPKDERGSAADSEESPAIEAIHLLRKTFPNLLVACDVCLCPYTSHGHCGLLSENGAFRAEESRQRLAEVALAYAKAGCQVVAPSDMMDGRVEAIKEALMAHGLGNRVSVMSYSAKFASCFYGPFRDAAKSSPAFGDRRCYQLPPGARGLALRAVDRDVREGADMLMVKPGMPYLDIVREVKDKHPDLPLAVYHVSGEFAMLWHGAQAGAFDLKAAVLEAMTAFRRAGADIIITYYTPQLLQWLKEE
notes: aminolevulinic acid dehydratase (ALAD), human, wild type; One [Fe4S4] cluster per monomer when purified anaerobically; The three cofactor states (Fe-S, apo, zinc) are told apart by the assay; the ~480 kD hexamer fits it; also called ALAD WT; [Fe4S4]-ALAD; source: E. coli BL21(DE3), expressed along with the A. vinelandii isc operon, purified anaerobically (amylose resin); also purified …

Molecular target: the molecule itself
Assay: native gel or EMSA; NativePAGE Bis-Tris gel; MBP-ALAD proteins expressed along with the isc operon in E. coli and purified anaerobically

Stoichiometry N, 6:
B1, B2, B3, B4, B5, B6, B7, B8

Molecular target: the molecule itself
Assay: native gel or EMSA; NativePAGE Bis-Tris gel; aerobically purified, EDTA-treated metal-free wild-type ALAD (aero-apo-ALAD WT)

Stoichiometry N, 6:
B9
